By Kd is commonly meant the equilibrium constant for the complex coming apart. The low end stands for tighter binding, the high end for weaker binding.

Assay in all cases: NMR 15N-HSQC titration
In series [1] the target is T1, KSRP KH3 (UniProt Q92945 323-418).
T1 sequence: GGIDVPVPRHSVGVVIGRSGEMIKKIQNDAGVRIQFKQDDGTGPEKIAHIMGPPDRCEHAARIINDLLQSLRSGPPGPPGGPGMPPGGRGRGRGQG

Series [2] concerns the target T1, KSRP KH3. The source holds these as a separate data set.
The target in the next series is T2, KSRP KH4 (UniProt Q92945 423-525).
T2 sequence: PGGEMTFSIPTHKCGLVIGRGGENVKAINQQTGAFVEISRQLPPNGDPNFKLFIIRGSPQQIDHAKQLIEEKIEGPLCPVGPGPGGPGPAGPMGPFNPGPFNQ

The target in another series is T3, KSRP KH1 (UniProt Q92945 130-218).
T3 sequence: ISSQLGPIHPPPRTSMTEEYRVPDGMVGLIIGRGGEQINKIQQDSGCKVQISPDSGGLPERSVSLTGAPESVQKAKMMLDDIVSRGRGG

Series [3] has as its target T1, KSRP KH3. The source holds these as a separate data set.
A further series has as its target T4, KSRP KH2 (UniProt Q92945 233-305).
T4 sequence: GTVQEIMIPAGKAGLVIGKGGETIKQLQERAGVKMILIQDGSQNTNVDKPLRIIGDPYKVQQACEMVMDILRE

Take UAUUAU (ssRNA): the binding signal with KSRP KH3 [1] is ~100 fold weaker than UGGGU. As for UAGGUU (ssRNA) [UAGGUU (UAGGUA in Fig 4b legend)], the Kd with KSRP KH3 [2] was determined as 6 ± 2 µM. Same read-out and setting: then UAGUAU (ssRNA), with 26 ± 5 µM.

In the case of UCCCC (ssRNA) [uCCCC], the binding result in the series with KSRP KH4, with KSRP KH1, with KSRP KH3 [3] and with KSRP KH2 was “no binding” in each case.

For the origin of these results see PMC2532734.
